# Results as given in patent publication US12686710B2, “Anti-HER2 polypeptides derivatives as new diagnostic molecular probes” (BRACCO IMAGING S.P.A., priority 2019, dated 2026).
# Tests used:
# [1] = biological target: HER2 (Homo sapiens, UniProt P04626); assay: ELISA monitoring of affitin selection against HER2; type: binding; settings: end of selection process
# Source text: (§1) To selectively target HER2 receptor, a library of affitins has been enriched against the target by several consecutive rounds of screening (up to 6 rounds). The enrichment of anti-HER2 afftins has been followed after any selection round by ELISA assay monitoring, also controlling the condition of negligible binding to human (HSA), murine (MSA) and bovine (BSA) serum albumin.
# [2] = test system: human (HSA), murine (MSA) and bovine (BSA) serum albumin; assay: ELISA control of binding to serum albumins
# Source text: as §1
# [3] = test system: SK-BR-3 breast adenocarcinoma cell line (overexpressing HER2 receptor); assay: Cell internalization assay with Pe38 fusion, cell viability; type: cell-based, human; settings: Aff03 tested as fusion Aff04-0-Pe38 (SEQ ID NO: 5), different concentrations
# Description: (§2) The cells internalization of Aff03 was evaluated using a dedicated cell-based assay. […] Such truncated form (Pe38) needs to be internalized by means of the Aff03 to keep its cytotoxic activity.
# (§3) To test internalization, then, the viability of the breast adenocarcinoma cell line SK-BR-3 (overexpressing HER2 receptor) and of the breast cancer cell line MCF-7 (low expressing HER2 receptor) was measured at different nanofitin concentrations.
# [4] = test system: MCF-7 breast cancer cell line (low expressing HER2 receptor); assay: as above; type: cell-based, human; settings: Aff03 tested as fusion Aff04-0-Pe38 (SEQ ID NO: 5), different concentrations
# Description: as §2, §3
molecule,measurement,setting,value
"Aff03: 64 aac affitin of SEQ ID NO: 1, HER2-binding polypeptide (protein, listed as Sulfolobus acidocaldarius) VKVKFGHMGEEKEVDTSKIYAVNRAGKFVHFAYDDNGKFGSGSVPEKDAPKELLDMLARAEREK",affinity to HER2,[1],nanomolar affinity
same,binding to albumin,[2],absence of binding to albumin
same,cytotoxic induction (cell viability) as measure of internalization,[3],dose-dependent cytotoxic induction
same,cytotoxic induction (cell viability) as measure of internalization,[4],no significant alterations
